From patent US11071783 (DUKE UNIVERSITY, dated 2021)

Assays:
[1] = biological target: gp41 of HIV-1 isolate B.BG1168 Env (HIV-1); assay: cell-based or functional assay
[2] = biological target: T1, STUB1 (STIP1 homology and U-box containing protein 1) (human, UniProt Q9UNE7 1-303); assay: protein microarray of >9400 human proteins
T1 construct: also called E3 ubiquitin ligase STIP1 Homology and U-Box Containing Protein 1
T1 sequence (looked up): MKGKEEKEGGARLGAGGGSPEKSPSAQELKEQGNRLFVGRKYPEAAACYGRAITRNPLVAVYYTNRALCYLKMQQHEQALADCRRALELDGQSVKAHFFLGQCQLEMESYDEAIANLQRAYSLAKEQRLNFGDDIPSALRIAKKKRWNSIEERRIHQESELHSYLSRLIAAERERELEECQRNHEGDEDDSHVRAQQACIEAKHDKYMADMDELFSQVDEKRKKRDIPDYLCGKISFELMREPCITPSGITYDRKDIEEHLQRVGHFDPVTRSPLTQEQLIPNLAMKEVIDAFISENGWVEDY

Molecule: 4E10 (antibody)
- lifetime of neutralization (t1/2), post-attachment TZM-bl assay with B.BG1168 [1]: 28.2 min

Molecule: 10E8 (antibody)
- lifetime of neutralization (t1/2), post-attachment TZM-bl assay with B.BG1168 [1]: 25.6 min

B1: DH511.2 (antibody, V domains shown)
VH: QVQLVQSGGGLVKPGGSLTLSCSASGFFFDNSWMGWVRQAPGKGLEWVGRIRRLKDGATGEYGAAVKDRFTISRDDSRNMLYLHMRTLKTEDSGTYYCTMDEGTPVTRFLEWGYFYYYMAVWGRGTTVIVSS
VL: DIVMTQSPSSVSASVGDRVTITCRASQNIRDYLNWYQHKPGGSPRLLIYAASTLQTGVPSRFSGSGSGNLFTLTITNLQPEDFATYYCQENYNTIPSLSFGQGTKVDIR
notes: also called DH512; Ab510049
- binding result [2]: binds
